The record followed here is patent US20200397913A1, “AXL-SPECIFIC ANTIBODY-DRUG CONJUGATES FOR CANCER TREATMENT” (GENMAB A/S, priority 2015, published 2020).

The target of assay [1] is T1, human AXL with a cynomolgus monkey extracellular domain (ECD) (Homo sapiens, UniProt P30530, P441T/S191N/S285L/T105A/T112A/T125N/T443A).
T1 construct: aa 1-447); expressed in transfected cells; host or cells: HEK293T
The assay is described as follows: Flow cytometry binding to HEK293T cells transfected with human AXL with cynomolgus ECD. The conditions noted are these: at least 3 experiments. On the technique in general: A flow cytometer gives signals particle by particle.

For assay [2], the target named is T2, AXLECDHis (extracellular domain of human AXL) (Homo sapiens, UniProt P30530).
T2 construct: the extracellular domain (ECD) of human AXL (aa 1-447) with a C-terminal His tag (AXLECDHis); His tag (C); made in house; host or cells: HEK-293F
The assay is described as follows: Binding affinity by Bio-Layer Interferometry (Octet). The conditions noted are these: for Kdis / Kon: soluble AXLECDHis, 30° C, 1:1 model. Background: Biolayer interferometry detects binding as a change in optical thickness at a sensor tip.

In assay [3] the target is T3, AXL on A431 cells (Homo sapiens, UniProt P30530).
T3 construct: AXL-positive A431 cells were incubated; endogenous in cells; host or cells: A431
The assay is described as follows: Antibody binding to A431 cells with or without Gas6 pre-incubation. The conditions noted are these: for Antibody binding to A431 cells: EC50 w/o Gas6 mean (s.d.): no Gas6 pre-incubation; for Antibody binding to A431 cells: EC50 in presence of Gas6 mean (s.d.): pre-incubation with 10 μg/mL Gas6.

The target in assay [4] is T4, human AXL with a mouse ECD (Mus musculus, UniProt Q00993, A791T/A867T/C878S/D603E/D853E/E609A/F637Y/G606S/G869S/H824Y/L452V/L825P/L872Q/P881A/R785Q/R828P/S823G/S856P/S873P/T871A/V766A).
T4 construct: aa 1-441); expressed in transfected cells; host or cells: HEK293T
The assay is described as follows: Flow cytometry binding to HEK293T cells transfected with human AXL with mouse ECD. The conditions noted are these: 0.0024-10 μg/mL.

Assay [5] has as its system MDA-MB-231 and Calu-1 cells. The assay is described as follows: Internalization of cell surface bound HuMab-AXL by flow cytometry. The conditions noted are these: 1 hour 4° C, then overnight 37° C versus 4° C. It is filed as cell-based, human. As to the method:
Internalization of cell surface bound HuMab-AXL antibodies to MDA-MB-231 and Calu-1 cells (human lung carcinoma cell line; ATCC, catalognumber HTB-54) was evaluated by flow cytometry. 50,000 cells were seeded in 96-well tissue culture plates and allowed to attach for 6 hrs at 37° C. Plates were incubated at 4° C. for 30 minutes before incubation with serial dilutions of AXL-antibodies (final concentration range 0.0032-10 μg/mL) at 4° C. for 1 hour. Subsequently, the medium was replaced by tissue culture medium without antibody and cells were incubated overnight (16-18 hours) at 37° C. or 4° C. […] Finally, cells were washed twice in PBS/0.1% BSA/0.02% azide, resuspended in 120 μL PBS/0.1% BSA/0.02% azide and analyzed on a FACS Cantoll (BD Biosciences).
(§1) Binding curves were analyzed using non-linear regression (sigmoidal dose-response with variable slope) using GraphPad Prism V5.04 software (GraphPad Software, San Diego, Calif., USA).

Assay [6] has as its target T5, human AXL (Homo sapiens, UniProt P30530).
T5 construct: expression constructs for full length human AXL; expressed in transfected cells; host or cells: HEK293T
The assay is described as follows: Flow cytometry binding to HEK293T cells transfected with full length human AXL. Particulars: at least 3 experiments.

The target in assay [7] is Gas6 binding to AXL on A431 cells (Homo sapiens, UniProt P30530). The assay is described as follows: Gas6 binding to A431 cells pre-incubated with AXL antibodies. Also on record: endogenous in cells; host or cells: A431. The conditions noted are these: pre-incubation with 10 μg/mL antibody; control antibody b12. On the procedure:
Alternatively, A431 cells were pre-incubated with 10 μg/mL AXL antibodies (15 minutes, 4° C.) to assess if the AXL ligand Gas6 could still bind in presence of AXL antibodies. […] After washing three times in PBS/0.1% BSA/0.02% azide, cells were incubated with mouse anti-Gas6 IgG2a (R&D Systems; cat no. MAB885) at 4° C. for 30 min. After washing three times in PBS/0.1% BSA/0.02% azide, cells were incubated with FITC-labelled goat anti-mouse IgG (Dako, Heverlee, Belgium; cat no. F049702) at 4° C. for 30 min in the dark. Next, cells were washed twice in PBS/0.1% BSA/0.02% azide, resuspended in 120 μL PBS/0.1% BSA/0.02% azide and analyzed on a FACS Cantoll (BD Biosciences).
as §1
Therefore, binding of Gas6 to A431 cells that had been pre-incubated with 10 μg/mL AXL antibodies was tested as described in Example 2.

Assay [8] concerns the target T6, human AXL transiently expressed by HEK-293F cells (Homo sapiens, UniProt P30530).
T6 construct: HEK-293F cells transiently expressing full length human AXL; expressed in transfected cells; host or cells: HEK-293F
The assay is described as follows: Homogeneous antigen specific screening assay (FMAT). The conditions noted are these: binding to human AXL on HEK-293F cells.

Marks after values point to notes of the source that are not given here.

T4 sequence (Q00993 19-888 with the stated changes): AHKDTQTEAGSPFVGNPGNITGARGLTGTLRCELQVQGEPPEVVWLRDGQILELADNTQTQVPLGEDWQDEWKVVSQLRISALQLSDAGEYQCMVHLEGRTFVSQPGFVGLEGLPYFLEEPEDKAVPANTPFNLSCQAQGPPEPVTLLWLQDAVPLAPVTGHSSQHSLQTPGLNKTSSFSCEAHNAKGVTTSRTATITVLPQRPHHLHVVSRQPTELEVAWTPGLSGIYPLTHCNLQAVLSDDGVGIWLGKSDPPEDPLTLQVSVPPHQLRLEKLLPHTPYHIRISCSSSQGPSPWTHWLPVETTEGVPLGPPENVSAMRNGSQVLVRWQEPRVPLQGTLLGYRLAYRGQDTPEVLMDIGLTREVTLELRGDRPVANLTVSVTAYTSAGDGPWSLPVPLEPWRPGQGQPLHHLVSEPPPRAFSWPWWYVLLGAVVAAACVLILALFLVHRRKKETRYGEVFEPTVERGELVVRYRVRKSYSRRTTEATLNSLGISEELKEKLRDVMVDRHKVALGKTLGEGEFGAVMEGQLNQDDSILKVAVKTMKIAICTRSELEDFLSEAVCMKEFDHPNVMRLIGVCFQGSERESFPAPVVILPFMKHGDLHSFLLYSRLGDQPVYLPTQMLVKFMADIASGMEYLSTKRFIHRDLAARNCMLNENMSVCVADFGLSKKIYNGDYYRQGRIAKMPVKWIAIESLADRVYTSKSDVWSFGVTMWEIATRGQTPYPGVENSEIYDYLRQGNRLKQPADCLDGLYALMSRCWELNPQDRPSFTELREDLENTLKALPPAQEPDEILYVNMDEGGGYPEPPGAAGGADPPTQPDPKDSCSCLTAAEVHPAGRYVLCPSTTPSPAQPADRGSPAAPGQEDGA

B1: IgG1-AXL-733: human IgG1,κ anti-AXL antibody, VH SEQ ID NO:34, VL SEQ ID NO:35; FN1 domain binding (antibody, V domains shown)
VH: QVQLVESGGGVVQPGRSLRLSCAASGFSFSTYAMHWVRQAPGKGLEWVAVISYDGDNKYSADSVKGRFTISRDNSKNTLYLQMNSLRAEDTAVYYCARGRKLGIDAFDIWGQGTMVTVSS
VL: AIQLTQSPSSLSASVGDRVTITCRASQGISSALAWYQQKPGKAPKLLIYDASSLESGVPSRFSGSGSGTDFTLTISGLQPEDFATYYCQQFNSYPFTFGPGTKVDIK
modifications: homo sapiens
On to B1, for which the “Binding EC50 cynomolgus AXL Average (s.d.)” value in assay [1] is listed as 0.254 (0.114) μg/mL. In addition, in assay [2], the Kdis was found to be 0.0097 s⁻¹ and the Kon was 160000 M⁻¹ s⁻¹. In addition, in assay [3], the “Antibody binding to A431 cells: EC50 w/o Gas6 mean (s.d.)” value is recorded as 0.49 (0.51) μg/mL and the “Antibody binding to A431 cells: EC50 in presence of Gas6 mean (s.d.)” value (from here on “Antibody binding … of Gas6 mean (s.d.)”) is on record as 0.62 (0.23) μg/mL. Besides, the “binding to AXL with a mouse ECD” value in assay [4] was “low”. Also, the “internalization of membrane-bound antibody” value in assay [5] is recorded as “internalize”. In assay [6], the “Binding EC50 human AXL Average (s.d.)” value is 0.176 (0.094) μg/mL. In addition, in assay [7], the “Gas6 binding: Maximal binding in presence of AXL antibodies (% of binding in presence of control antibody)” value is 96%.

B2: IgG1-AXL-511: human IgG1,κ anti-AXL antibody, VH SEQ ID NO:136, VL SEQ ID NO:140; Ig2 domain binding (antibody, V domains shown)
VH: EVQLLESGGGLVQPGGSLRLSCAASGFTFSSYAMNWVRQAPGKGLEWVSGISGSGGHTYHADSVKGRFTISRDNSKNTLYLQMNSLRAEDTAVYYCAKDRYDILTGYYNLLDYWGQGTLVTVSS
VL: DIQMTQSPSSLSASVGDRVTITCRASQGISSWLAWYQQKPEEAPKSLIYAASSLQSGVPSRFSGSGSGTDFTLTISSLQPEDFATYYCQQYNSYPLTFGGGAKVEIK
modifications: homo sapiens
In assay [2], B2 showed a Kdis of 0.0039 s⁻¹ and a Kon of 170000 M⁻¹ s⁻¹. In assay [3], the “Antibody binding to A431 cells: EC50 w/o Gas6 mean (s.d.)” value was 0.12 (0.11) μg/mL and the “Antibody binding … of Gas6 mean (s.d.)” value is listed as 0.30 (0.31) μg/mL. In assay [5], the “internalization of membrane-bound antibody” value is given as “internalize”. Moreover, the “Gas6 binding: Maximal binding in presence of AXL antibodies (% of binding in presence of control antibody)” value in assay [7] came to 113%.

B3: IgG1-AXL-187: human IgG1,κ anti-AXL antibody, VH SEQ ID NO:19, VL SEQ ID NO:20 (antibody, V domains shown)
VH: QVPLQQWGAGLLKPSETLSLTCAVYGGSFSGYHWSWIRQPPGKGLEWIGEISHSGRTNYNPSLKSRVTISIDTSKNQFSLKLSSVTAADTAVYYCASFITMIRGTIITHFDYWGQGTLVTVSS
VL: DIQMTQSPSSLSASVGDRVTITCRASQGISSWLAWYQQKPEKAPKSLIYAASSLQSGVPSRFSGSGSGTDFTLTISSLQPEDFATYYCQQYHSYPYTFGQGTKLEIK
modifications: homo sapiens
For B3, the Maximal binding in assay [8] stood at 2563 Arbitrary units.

B4: IgG1-AXL-726: human IgG1,κ anti-AXL antibody, VH SEQ ID NO:31, VL SEQ ID NO:33; FN2 domain binding (antibody, V domains shown)
VH: QVQLQQWGAGLLKPSETLSLTCAIDGGSFSGYYWSWIRQPPGKGLEWIGEISHSGRTNYNPSLKSRVTISIDTSKNQFSLKLSSVAAADTAVYYCARFITMIRGAIITHFDYWGQGALVTVSS
VL: DIQMTQSPSSLSASVGDRVTITCRASQGISSWLAWYQQKPEKAPKSLIYAASSLQSGVPSRFSGSGSGTDFTLTISSLQPEDFATYYCQQYHSYPYTFGQGTKLEIK
modifications: homo sapiens
For B4, the “Binding EC50 cynomolgus AXL Average (s.d.)” value in assay [1] is recorded as 0.349 (0.160) μg/mL. In addition, in assay [2], the Kdis came out at 0.00013 s⁻¹ and the Kon stood at 240000 M⁻¹ s⁻¹. In assay [3], the “Antibody binding to A431 cells: EC50 w/o Gas6 mean (s.d.)” value is on record as 0.32 (0.35) μg/mL and the “Antibody binding … of Gas6 mean (s.d.)” value is on record as 0.55 (0.69) μg/mL. For the same molecule, the Maximal binding in assay [8] is recorded as 3154 Arbitrary units. Moreover, the “binding to AXL with a mouse ECD” value in assay [4] was “not detectable”. Besides, the “Binding EC50 human AXL Average (s.d.)” value in assay [6] is 0.288 (0.206) μg/mL. Besides, the “Gas6 binding: Maximal binding in presence of AXL antibodies (% of binding in presence of control antibody)” value in assay [7] was determined as 98%.

B5: IgG1-AXL-140: human IgG1,κ anti-AXL antibody, VH SEQ ID NO:3, VL SEQ ID NO:4 (antibody, V domains shown)
VH: EVQLLESGGGLVQPGGSLRLSCAASGFTFSSYAMTWVRQAPGKGLEWVSAISISGASTFYADSVKGRFTISRDNSKNTLSLQMNSLRAEDTAVYFCRGYSGYVYDAFDIWGQGTMVTVSS
VL: DIQMTQSPSSLSASVGDRVTITCRASQGISNWLAWYQQKPEKAPKSLIYAASSLQSGVPSRFSGSGSGTDFTLTISSLQPEDFATYYCQQYNSYPLTFGGGTKVEIK
modifications: homo sapiens
Take B5: the Maximal binding in assay [8] is given as 2889 Arbitrary units.

B6: IgG1-AXL-183-N52Q: point mutant of IgG1-AXL-183, VH SEQ ID NO:17, VL SEQ ID NO:18 (antibody, V domains shown)
VH: QVQLQQWGAGLLKPSETLSLTCAVYGGSFSGYYWSWIRQPPGKGLEWIGEIQQSGSTNYNPSLKSRVTISVDTSKNQFSLKLSSVTAADTSVYYCASGNWDHFFDYWGQGTLVTVSS
VL: DIQMTQSPSSVSASVGDRVTITCRASQGISSWLAWYQHKPGKAPKLLIYATSSLQSGVTSRFSGSGSGTDFTLTISSLQPEDFATYYCQQAKSFPWTFGQGTKVEIK
modifications: homo sapiens
For B6, in assay [1], the “Binding EC50 cynomolgus AXL Average (s.d.)” value is on record as 0.324 (0.121) μg/mL. Besides, in assay [2], the “dissociation rate, fold higher than wild-type IgG1-AXL-183” value is “approximately 2.5 fold”; the Kdis was 0.001 s⁻¹; the Kon was 42000 M⁻¹ s⁻¹. Also, the “binding to AXL with a mouse ECD” value in assay [4] was “low”. In addition, in assay [5], the “internalization of membrane-bound antibody” value is recorded as “internalize”. Besides, the “Binding EC50 human AXL Average (s.d.)” value in assay [6] is given as 0.350 (0.206) μg/mL.

B7: IgG1-AXL-183: human IgG1,κ anti-AXL antibody, VH SEQ ID NO:16, VL SEQ ID NO:18; FN1 domain binding (antibody, V domains shown)
VH: QVQLQQWGAGLLKPSETLSLTCAVYGGSFSGYYWSWIRQPPGKGLEWIGEINQSGSTNYNPSLKSRVTISVDTSKNQFSLKLSSVTAADTSVYYCASGNWDHFFDYWGQGTLVTVSS
VL: DIQMTQSPSSVSASVGDRVTITCRASQGISSWLAWYQHKPGKAPKLLIYATSSLQSGVTSRFSGSGSGTDFTLTISSLQPEDFATYYCQQAKSFPWTFGQGTKVEIK
modifications: homo sapiens
Regarding B7, the “Binding EC50 cynomolgus AXL Average (s.d.)” value in assay [1] is on record as 0.309 (0.086) μg/mL. In assay [2], this molecule came in with a Kdis of 0.00042 s⁻¹ and a Kon of 41000 M⁻¹ s⁻¹. In assay [3], the “Antibody binding to A431 cells: EC50 w/o Gas6 mean (s.d.)” value is recorded as 0.69 (0.72) μg/mL and the “Antibody binding … of Gas6 mean (s.d.)” value is 1.19 (1.11) μg/mL. Further, the “binding to AXL with a mouse ECD” value in assay [4] is “low”. For the same molecule, the “Binding EC50 human AXL Average (s.d.)” value in assay [6] was 0.526 (0.177) μg/mL. Also, the “Gas6 binding: Maximal binding in presence of AXL antibodies (% of binding in presence of control antibody)” value in assay [7] was found to be 115%.
